Measured values as given in PMC4374696, “Protease Activity of PprI Facilitates DNA Damage Response: Mn(2+)-Dependence and Substrate Sequence-Specificity of the Proteolytic Reaction”.

T1: DdrO (Deinococcus radiodurans R1 (ATCC 13939), UniProt Q9RRB8 1-131)
T1 sequence: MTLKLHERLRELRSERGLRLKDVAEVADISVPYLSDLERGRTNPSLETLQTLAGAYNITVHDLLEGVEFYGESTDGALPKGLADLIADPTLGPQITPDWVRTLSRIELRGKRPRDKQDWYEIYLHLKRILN

T2: DdrO (Deinococcus radiodurans R1 (ATCC 13939)) (UniProt Q9RRB8)
T2 sequence: T1 sequence

B1: minimum DdrO binding sequence of PrecA (21 bp) (dsDNA)
DNA 1: TGTTATGCTGCTAGCAGAAAT
DNA 2: ATTTCTGCTAGCAGCATAACA

biological target: T1, DdrO; assay: EMSA; 150 mM NaCl, 20 mM Tris-HCl pH 8.0, 5 mM MgCl2, 1.6 uM DNA, 0-16 uM protein, 30 C; 12% TB-PAGE; conditions: protein: recombinant; tags: 6xHis-MBP tag removed by TEV; chain copies: 2; blunt

Molecule	binding result
B1	binds

biological target: T2, DdrO (Deinococcus radiodurans R1 (ATCC 13939)); assay: EMSA; conditions: 150 mM NaCl, 20 mM Tris-HCl pH 8.0, 5 mM MgCl2, 1.6 uM DNA, 0-16 uM protein, 30 C; 12% TB-PAGE

Molecule	binding
GCACTGCGGCTTGCAGCGCCGGGTGACCATGCCCAGCCTCCCTGCTCCAGCGCCCGCCCGCAAACCCGAGCGGCGGCTGTTCGGGCTCTTGCGAATCTGAAGGTCTTGGTGCCCGGCCTCTGCTGGGAGGCGGGACACTGGCACCGGCTTCCCCGATGTG (double strand) [PddrB- (no RDRM)]	no binding
TAAAAAGGCCAGGGGTAGCACTCTGGCATAAGGAAAACCCAGCTTCGGCGGTCTTTGTGCCTTTGCCAGCTTTCACGGCGAAAGAAACGTCCAGATGACAGTGACACCCAAAGTGCACCCGGCGCCGTTCAGGGCACAGGTGCGGACTACAGTGGGGCCGTGAC (double strand) [PpprA- (no RDRM)]	no binding
TAGTAACAAGCAGAGTCAATTATGTCAATGACATAAAAGGCTCAGGCCTTCTTGGTCTTCCACTCCGGGCGGTCCTTGACCACCAGGACGCGGCGGACGTTGTCGCGCAGGCGCAGGCTGCTGGCGATGGCGGTTTCGGGGTTGCCCGAAGCCTTGATGGTGTACATCAGGTAGTAGCCTTCGCGGTCCTTGCCCACCTGG (double strand) [PdrssB]	binds
CCCTTGCCATACTGCCTTTATTATGCCCTGAACAGATTAAAAAGGCCAGGGGTAGCACTCTGGCATAAGGAAAACCCAGCTTCGGCGGTCTTTGTGCCTTTGCCAGCTTTCACGGCGAAAGAAACGTCCAGATGACAGTGACACCCAAAGTGCACCCGGCGCCGTTCAGGGCACAGGTGCGGACTACAGTGGGGCCGTGAC (double strand) [PpprA]	binds
AGAAACACCAGCATGATCGCAAGGTAGGCTGCTCCGCGCACTGGGGCGTCCGCCGAAAGGTGCAGCGCGCCTCACCTTCCCTTGACCCATCCCATTCAGGGCCGCACCCTGTAGACACTGGTTACGTCCTCCCATATACTCCGGTGAGGTTGTTATGCTGCTAGCAGAAATCATCAGTGTGGGCACG (double strand) [PrecA (recA promoter, RDRM)]	binds
AACGCCAGTTGATTAAGGGGAAATGGAGAGGGGTTCGGGGCGGCCCCTGCCTGCTCTGTCGGCCAGCTTTCGGCAGAGTGGGCCCCGGCTCCGGCGCACTGACGCGGGCTAGACCCTCCCGCGCCGCCCTCCACCGCCGCCTCTACCTTCGTCCTATGCCCCG (double strand) [PddrA- (no RDRM)]	no binding
AGTTTAGAACAGAATAACATTACGGTCAAGACATAAAACGCCAGTTGATTAAGGGGAAATGGAGAGGGGTTCGGGGCGGCCCCTGCCTGCTCTGTCGGCCAGCTTTCGGCAGAGTGGGCCCCGGCTCCGGCGCACTGACGCGGGCTAGACCCTCCCGCGCCGCCCTCCACCGCCGCCTCTACCTTCGTCCTATGCCCCG (double strand) [PddrA]	binds
GCACTGCGGCTTGCAGCGCCGGGTGACCATGCCCAGCCTCCCTGCTCCAGCGCCCGCCCGCAAACCCGAGCGGCGGCTGTTCGGGCTCTTGCGAATCTGAAGGTCTTGGTGCCCGGCCTCTGCTGGGAGGCGGGACACTGGCACCGGCTTCCCCGATGTGTTATGTTATTTACGTAAGGAGGAGGCAGATGTTGCAGATT (double strand) [PddrB]	binds
CAACCTCACCGGAGTATATGGGAGGACGTAACCAGTGTCTACAGGGTGCGGCCCTGAATGGGATGGGTCAAGGGAAGGTGAGGCGCGCTGCACCTTTCGGCGGACGCCCCAGTGCGCGGAGCAGCCTACCTTGCGATCATGCTGGTGTTTCT (double strand) [PrecA- (no RDRM)]	no binding
AGGAGCAGTTTCTTCATGAAGCCTCCAGATCAAAGGCGCACGAAGCAGGCCTGCCCCAAAGGAAGGCGGGCCTGCTGGGTTGCGTGACAGCCGGGACGTAAATAATGGCCCCAGGGTAGGGGCGGGCCGGGGGGGTGTCAAGGTACGCAGCGGGGGGCCTCCATGATTCTGCCCACAACGTAAACGCGCTATCCTGGGGAG (double strand) [PrecQ- (no RDRM)]	no binding
TACTGCGGTCTGACGATGACCTCGTCCTTATCTGCGGGAGCCTCTATCTGCTCGGCGAACTGCGTCCTTTGCTGCTGGGCGAGCAGTCGGAAGGCCACGAACGCTGGCAATAGCCACAGCAGCGGCCAATTTCTGGTTTCGAAACAGGAATAAGGCAAGTTGACTGCCCTCA (double strand) [PddrO- (no RDRM)]	no binding
TACTGCGGTCTGACGATGACCTCGTCCTTATCTGCGGGAGCCTCTATCTGCTCGGCGAACTGCGTCCTTTGCTGCTGGGCGAGCAGTCGGAAGGCCACGAACGCTGGCAATAGCCACAGCAGCGGCCAATTTCTGGTTTCGAAACAGGAATAAGGCAAGTTGACTGCCCTCATTCTGTATTGACCGTAGCAAGGAGCGGTGTTACACT (double strand) [PddrO]	binds
